Measured values reported in US20140011732A1.

Molecular target: human serum albumin (HSA) (human) (UniProt P02768)
Experiment: competition SPA on biotinylated HSA, 125I acylated GLP-1 tracer

Sequence of N-epsilon37-[2-(2-[2-(2-[2-(2-((R)-3-[1-(17-Carboxyheptadecanoyl)piperidin-4-ylcarbonylamino]3-carboxypropionylamino)ethoxy)ethoxy]acetylamino)ethoxy]ethoxy)acetyl][DesaminoHis7, Glu22 Arg26, Arg 34, (peptide): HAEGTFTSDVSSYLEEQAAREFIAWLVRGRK

EC50: 800 nM
Substance: N-epsilon37-[2-(2-[2-(2-[2-(2-((R)-3-[1-(17-Carboxyheptadecanoyl)piperidin-4-ylcarbonylamino]3-carboxypropionylamino)ethoxy)ethoxy]acetylamino)ethoxy]ethoxy)acetyl][DesaminoHis7, Glu22 Arg26, Arg 34, Phe(m-CF3)28]GLP-1-(7-37)amide (peptide)
